The target in this assay is Recombinant Ebola virus (EBOV) glycoprotein (Ebola virus (Zaire ebolavirus)) (UniProt Q05320). Description: SEC + cross-linking.

“Recombinant Ebola virus (EBOV) glycoprotein (from UniProt Q05320) (natural protein)”: the stoichiometry N is 3.

What is called stoichiometry N is the number of molecules, sites or subunits per partner or assembly.
